Results on 14 molecules are retold here after patent US20210388087A1 (Chugai, published 2021).

The chains are these.
T1: Human CD3eg linker (human)
T1 construct: Single chain: epsilon and gamma subunits of human CD3 joined by a 29-mer linker, Flag-tag at the C-terminus; also called recombinant human CD3
T1 chain: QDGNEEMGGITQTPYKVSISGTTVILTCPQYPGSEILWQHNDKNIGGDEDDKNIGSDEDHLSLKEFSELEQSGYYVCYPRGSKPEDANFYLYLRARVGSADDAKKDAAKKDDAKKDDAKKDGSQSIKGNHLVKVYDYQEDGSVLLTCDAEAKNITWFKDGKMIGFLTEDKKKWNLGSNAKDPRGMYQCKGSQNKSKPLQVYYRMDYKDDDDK

B1: H183/L072 VH N53M (antibody, name in Kabat numbering, V domains shown)
VH: QVQLVESGGGLVQPGRSLRLSCAASGFTFSNAWMHWVRQAPGKGLEWVAQIKDKGMAYAAYYAPSVKGRFTISRDDSKNSIYLQMNSLKTEDTAVYYCHYVHYASASTVLPAFGVDAWGQGTTVTVSS
VL: DIVMTQSPLSLPVTPGEPASISCQASQELVHMNRNTYLHWYQQKPGQAPRLLIYKVSNRFPGVPDRFSGSGSGTDFTLKISRVEAEDVGVYYCAQGTSVPFTFGQGTKLEIK
B2: H183/L072 VH N53Y (antibody, name in Kabat numbering, V domains shown)
VH: QVQLVESGGGLVQPGRSLRLSCAASGFTFSNAWMHWVRQAPGKGLEWVAQIKDKGYAYAAYYAPSVKGRFTISRDDSKNSIYLQMNSLKTEDTAVYYCHYVHYASASTVLPAFGVDAWGQGTTVTVSS
VL: DIVMTQSPLSLPVTPGEPASISCQASQELVHMNRNTYLHWYQQKPGQAPRLLIYKVSNRFPGVPDRFSGSGSGTDFTLKISRVEAEDVGVYYCAQGTSVPFTFGQGTKLEIK
B3: H183/L072 VH P61A (antibody, name in Kabat numbering, V domains shown)
VH: QVQLVESGGGLVQPGRSLRLSCAASGFTFSNAWMHWVRQAPGKGLEWVAQIKDKGNAYAAYYAASVKGRFTISRDDSKNSIYLQMNSLKTEDTAVYYCHYVHYASASTVLPAFGVDAWGQGTTVTVSS
VL: DIVMTQSPLSLPVTPGEPASISCQASQELVHMNRNTYLHWYQQKPGQAPRLLIYKVSNRFPGVPDRFSGSGSGTDFTLKISRVEAEDVGVYYCAQGTSVPFTFGQGTKLEIK
B4: H183/L072 VH P100eA (antibody, name in Kabat numbering, V domains shown)
VH: QVQLVESGGGLVQPGRSLRLSCAASGFTFSNAWMHWVRQAPGKGLEWVAQIKDKGNAYAAYYAPSVKGRFTISRDDSKNSIYLQMNSLKTEDTAVYYCHYVHYASASTVLAAFGVDAWGQGTTVTVSS
VL: DIVMTQSPLSLPVTPGEPASISCQASQELVHMNRNTYLHWYQQKPGQAPRLLIYKVSNRFPGVPDRFSGSGSGTDFTLKISRVEAEDVGVYYCAQGTSVPFTFGQGTKLEIK
B5: H183/L072 VH N53V (antibody, name in Kabat numbering, V domains shown)
VH: QVQLVESGGGLVQPGRSLRLSCAASGFTFSNAWMHWVRQAPGKGLEWVAQIKDKGVAYAAYYAPSVKGRFTISRDDSKNSIYLQMNSLKTEDTAVYYCHYVHYASASTVLPAFGVDAWGQGTTVTVSS
VL: DIVMTQSPLSLPVTPGEPASISCQASQELVHMNRNTYLHWYQQKPGQAPRLLIYKVSNRFPGVPDRFSGSGSGTDFTLKISRVEAEDVGVYYCAQGTSVPFTFGQGTKLEIK
B6: H183/L072 VH N53R (antibody, name in Kabat numbering, V domains shown)
VH: QVQLVESGGGLVQPGRSLRLSCAASGFTFSNAWMHWVRQAPGKGLEWVAQIKDKGRAYAAYYAPSVKGRFTISRDDSKNSIYLQMNSLKTEDTAVYYCHYVHYASASTVLPAFGVDAWGQGTTVTVSS
VL: DIVMTQSPLSLPVTPGEPASISCQASQELVHMNRNTYLHWYQQKPGQAPRLLIYKVSNRFPGVPDRFSGSGSGTDFTLKISRVEAEDVGVYYCAQGTSVPFTFGQGTKLEIK
B7: H183/L072 VH P61M (antibody, name in Kabat numbering, V domains shown)
VH: QVQLVESGGGLVQPGRSLRLSCAASGFTFSNAWMHWVRQAPGKGLEWVAQIKDKGNAYAAYYAMSVKGRFTISRDDSKNSIYLQMNSLKTEDTAVYYCHYVHYASASTVLPAFGVDAWGQGTTVTVSS
VL: DIVMTQSPLSLPVTPGEPASISCQASQELVHMNRNTYLHWYQQKPGQAPRLLIYKVSNRFPGVPDRFSGSGSGTDFTLKISRVEAEDVGVYYCAQGTSVPFTFGQGTKLEIK
B8: H183/L072 VH N53T (antibody, name in Kabat numbering, V domains shown)
VH: QVQLVESGGGLVQPGRSLRLSCAASGFTFSNAWMHWVRQAPGKGLEWVAQIKDKGTAYAAYYAPSVKGRFTISRDDSKNSIYLQMNSLKTEDTAVYYCHYVHYASASTVLPAFGVDAWGQGTTVTVSS
VL: DIVMTQSPLSLPVTPGEPASISCQASQELVHMNRNTYLHWYQQKPGQAPRLLIYKVSNRFPGVPDRFSGSGSGTDFTLKISRVEAEDVGVYYCAQGTSVPFTFGQGTKLEIK
B9: H183/L072 VH P61L (antibody, name in Kabat numbering, V domains shown)
VH: QVQLVESGGGLVQPGRSLRLSCAASGFTFSNAWMHWVRQAPGKGLEWVAQIKDKGNAYAAYYALSVKGRFTISRDDSKNSIYLQMNSLKTEDTAVYYCHYVHYASASTVLPAFGVDAWGQGTTVTVSS
VL: DIVMTQSPLSLPVTPGEPASISCQASQELVHMNRNTYLHWYQQKPGQAPRLLIYKVSNRFPGVPDRFSGSGSGTDFTLKISRVEAEDVGVYYCAQGTSVPFTFGQGTKLEIK
B10: H183/L072 VH N53S (antibody, name in Kabat numbering, V domains shown)
VH: QVQLVESGGGLVQPGRSLRLSCAASGFTFSNAWMHWVRQAPGKGLEWVAQIKDKGSAYAAYYAPSVKGRFTISRDDSKNSIYLQMNSLKTEDTAVYYCHYVHYASASTVLPAFGVDAWGQGTTVTVSS
VL: DIVMTQSPLSLPVTPGEPASISCQASQELVHMNRNTYLHWYQQKPGQAPRLLIYKVSNRFPGVPDRFSGSGSGTDFTLKISRVEAEDVGVYYCAQGTSVPFTFGQGTKLEIK
B11: H183/L072 VH P61I (antibody, name in Kabat numbering, V domains shown)
VH: QVQLVESGGGLVQPGRSLRLSCAASGFTFSNAWMHWVRQAPGKGLEWVAQIKDKGNAYAAYYAISVKGRFTISRDDSKNSIYLQMNSLKTEDTAVYYCHYVHYASASTVLPAFGVDAWGQGTTVTVSS
VL: DIVMTQSPLSLPVTPGEPASISCQASQELVHMNRNTYLHWYQQKPGQAPRLLIYKVSNRFPGVPDRFSGSGSGTDFTLKISRVEAEDVGVYYCAQGTSVPFTFGQGTKLEIK
B12: H183/L072 VH N53Q (antibody, name in Kabat numbering, V domains shown)
VH: QVQLVESGGGLVQPGRSLRLSCAASGFTFSNAWMHWVRQAPGKGLEWVAQIKDKGQAYAAYYAPSVKGRFTISRDDSKNSIYLQMNSLKTEDTAVYYCHYVHYASASTVLPAFGVDAWGQGTTVTVSS
VL: DIVMTQSPLSLPVTPGEPASISCQASQELVHMNRNTYLHWYQQKPGQAPRLLIYKVSNRFPGVPDRFSGSGSGTDFTLKISRVEAEDVGVYYCAQGTSVPFTFGQGTKLEIK
B13: H183/L072 VH N53W (antibody, name in Kabat numbering, V domains shown)
VH: QVQLVESGGGLVQPGRSLRLSCAASGFTFSNAWMHWVRQAPGKGLEWVAQIKDKGWAYAAYYAPSVKGRFTISRDDSKNSIYLQMNSLKTEDTAVYYCHYVHYASASTVLPAFGVDAWGQGTTVTVSS
VL: DIVMTQSPLSLPVTPGEPASISCQASQELVHMNRNTYLHWYQQKPGQAPRLLIYKVSNRFPGVPDRFSGSGSGTDFTLKISRVEAEDVGVYYCAQGTSVPFTFGQGTKLEIK
B14: H183/L072 VH N53P (antibody, name in Kabat numbering, V domains shown)
VH: QVQLVESGGGLVQPGRSLRLSCAASGFTFSNAWMHWVRQAPGKGLEWVAQIKDKGPAYAAYYAPSVKGRFTISRDDSKNSIYLQMNSLKTEDTAVYYCHYVHYASASTVLPAFGVDAWGQGTTVTVSS
VL: DIVMTQSPLSLPVTPGEPASISCQASQELVHMNRNTYLHWYQQKPGQAPRLLIYKVSNRFPGVPDRFSGSGSGTDFTLKISRVEAEDVGVYYCAQGTSVPFTFGQGTKLEIK

This assay has as its target T1, Human CD3eg linker. As to the kind of experiment: Biacore SPR, vs template H183/L072. Background: Surface plasmon resonance follows binding to a sensor surface in real time, without labels.
Consider B1, for which the “fold change of affinity” value turned out to be 0.5 fold.
To B2 belongs 0.9 fold; to B3, 1.9 fold.
With B4 the figure was 1.2 fold; with B5, 0.5 fold; with B6, 0.8 fold.
To B7 belongs 1.8 fold; to B8, 0.6 fold.
For the molecule B9, the “fold change of affinity” value was 1.8 fold.
With B10 the figure was 0.8 fold.
To B11 belongs 1.8 fold; to B12, 0.5 fold.
With B13 the figure was 1.2 fold; with B14, 0 fold.
